Measured values from PMC6585716 (Biopolymers, 2017).
Non-standard residues stand in square brackets, D forms with d. No end group written: not given here. code X = not defined here

Key:
Details in all cases: both partners purified
[1] = biological target: T1, Recombinant human vascular endothelial growth factor (VEGF165) (human, UniProt P15692-4 1-191, X (detection label) on the N-terminus); disulfide bridge between the two cysteines cyclises …; C-terminal Tz4 (1,4-triazole linker) joins it to lfrew | all D-residues (printed in lowercase: l); experiment: inhibition assay; inhibition of VEGF binding to VEGFR2 in the presence of PCCs, Figure 2B; experimental details in the Supporting Information
[2] = biological target: Recombinant human vascular endothelial growth factor (VEGF165) (human, UniProt P15692-4 1-191, X (detection label) on the N-terminus; disulfide bridge between the two cysteines cyclises …; C-terminal Tz4 (1,4-triazole formed of Az4 and D-propargylglycine) joins it to lfrew | all D-res); experiment: not stated; titration giving EC50 ('relative affinities') of PCCs on VEGF, Figure 2A; experimental details in the Supporting Information
[3] = biological target: T1, Recombinant human vascular endothelial …; experiment: as above

T1 sequence (P15692 other isoform, or with tags, fused parts or gaps): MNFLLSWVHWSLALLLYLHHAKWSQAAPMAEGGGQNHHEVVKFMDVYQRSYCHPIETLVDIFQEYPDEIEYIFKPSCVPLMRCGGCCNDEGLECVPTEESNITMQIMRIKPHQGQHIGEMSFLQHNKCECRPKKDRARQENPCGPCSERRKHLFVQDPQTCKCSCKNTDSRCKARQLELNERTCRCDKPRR
Recombinant human vascular endothelial growth factor (VEGF165) (human, UniProt P15692-4 1-191, X (detection label) on the N-terminus; disulfide bridge between the two cysteines cyclises …; C-terminal Tz4 (1,4-triazole formed of Az4 and D-propargylglycine) joins it to lfrew | all D-res), sequence (P15692 other isoform, or with tags, fused parts or gaps): as above

B1: Tri-LV (X-VEPNCDIHVMWEWECFERL-Tz4-lfrew-Tz4-eeird) (designed binder)
peptide 1: {code X}-VEPNCDIHVMWEWECFERL
peptide 2: [dL][dF][dR][dE][dW]
peptide 3: [dE][dE][dI][dR][dD]
modifications: cysteine pairing not given here; reading uncertain; also: chains joined via Tz4 linkers, N-terminal X not defined, triazole to a chain's N/C-terminus, triazole to a chain's N/C-terminus, printed as X-VEPNCDIHVMWEWECFERL-Tz4-lfrew-Tz4-eeird
notes: also called consensus triligand; 64Cu-DOTA-Tri-LV (N-terminal DOTA conjugate, in vivo)
B1 showed an IC50 [1] of 2.6 ± 0.5 nM.

B2: Bi-LV (X-VEPNCDIHVMWEWECFERL-Tz4-lfrew) (designed binder)
peptide 1: {code X}-VEPNCDIHVMWEWECFERL
peptide 2: [dL][dF][dR][dE][dW]
modifications: not fully specified; printed as X-VEPNCDIHVMWEWECFERL-Tz4-lfrew; cysteine pairing not given here; reading uncertain; also: chain 1 C-terminus joined to chain 2 N-terminus via Tz4
notes: also called anti-VEGF biligand PCC
In the case of B2, the “fold improvement in EC50 relative to AnchorV” value [2] is reported as 4.5 fold.

B3: Tetra-LV (X-VEPNCDIHVMWEWECFERL-Tz4-lfrew-Tz4-eeird-Tz4-qfkyr) (designed binder)
peptide 1: {code X}-VEPNCDIHVMWEWECFERL
peptide 2: [dL][dF][dR][dE][dW]
peptide 3: [dE][dE][dI][dR][dD]
peptide 4: [dQ][dF][dK][dY][dR]
modifications: cysteine pairing not given here; reading uncertain; also: chains joined via Tz4 linkers, N-terminal X not defined, triazole to a chain's N/C-terminus, triazole to a chain's N/C-terminus, triazole to a chain's N/C-terminus, printed as X-VEPNCDIHVMWEWECFERL-Tz4-lfrew-Tz4-eeird-Tz4-qfkyr
notes: also called tetraligand
For B3, the EC50 [3] was 6.1 ± 0.2 nM and the IC50 [1] was 0.74 ± 0.05 nM.
